These results are taken from patent US20240383982A1 (Genmab, published 2024).

Test [1] addresses T1, human B7H4, full length, on cells (human, UniProt Q7Z7D3 25-282).
T1 sequence: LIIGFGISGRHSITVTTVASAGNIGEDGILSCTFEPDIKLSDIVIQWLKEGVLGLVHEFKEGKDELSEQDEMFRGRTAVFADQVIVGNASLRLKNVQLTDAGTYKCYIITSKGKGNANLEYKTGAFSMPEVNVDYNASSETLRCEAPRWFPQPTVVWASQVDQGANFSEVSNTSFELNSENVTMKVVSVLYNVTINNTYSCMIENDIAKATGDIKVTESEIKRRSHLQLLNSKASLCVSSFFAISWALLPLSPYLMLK
The test can be described thus: cell-based or functional assay.

Test [2] has as its target T1, human B7H4, full length, on cells. Put plainly: flow cytometry on HCC1954 tumor cells [HCC1954 right panel]. As for the experimental part: (§1) Cells (3×10⁴ cells/well) were incubated in polystyrene 96-well round-bottom plates (Greiner bio-one, cat. no. 650180) with serial dilutions of antibodies (ranging from 0.000458 to 30 μg/mL in 4-fold dilution steps) in 100 μL PBS/0.1% BSA/0.02% azide (staining buffer) at 4° C. for 30 min. Experiments were performed in technical duplicate. After washing twice in staining buffer, cells were incubated in 50 μL secondary antibody at 4° C. for 30 min. As a secondary antibody, R-Phycoerythrin (PE)-conjugated goat-anti-human IgG F(ab′)₂ (1:500 in FACS buffer; Jackson ImmunoResearch Laboratories, Inc., West Grove, PA, cat. no. 109-116-098), was used. Cells were washed twice in staining buffer, re-suspended in 30 μL FACS buffer containing Topro-3 (1:10,000 dilution) and analyzed on an iQue Screener (Intellicyt Corporation, USA). Binding curves were analyzed using non-linear regression (sigmoidal dose-response with variable slope) using GraphPad Prism V7.02 software (GraphPad Software, San Diego, CA, USA).
(§2) Binding was analyzed by flow cytometry as described above.
(Flow cytometry measures light scatter and fluorescence of single cells or particles in a stream.)

In test [3] the target is T2, pig (Sus scrofa) B7H4, full length, on HEK-293F cells (pig, UniProt Q7Z7D3 26-282 (human entry)).
T2 construct: Uniprot F1SAY4; also called pig B7H4
T2 chain: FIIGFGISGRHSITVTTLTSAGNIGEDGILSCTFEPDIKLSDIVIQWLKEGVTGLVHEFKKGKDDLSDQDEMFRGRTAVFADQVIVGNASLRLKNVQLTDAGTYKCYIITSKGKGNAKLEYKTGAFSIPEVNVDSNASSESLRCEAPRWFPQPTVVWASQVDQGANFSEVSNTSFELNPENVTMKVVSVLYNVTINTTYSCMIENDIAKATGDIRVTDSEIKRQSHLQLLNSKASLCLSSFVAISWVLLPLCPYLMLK
The test can be described thus: flow cytometry, HEK-293F cells transiently transfected with pig B7H4 [panel Pig B7H4]. As for the experimental part:
as §1

Test [4] addresses T1, human B7H4, full length, on cells. Put plainly: flow cytometry on MDA-MB-468 tumor cells [panel MDA-MB-468]. As to the method:
as §1, §2

Test [5] shares this target. Put plainly: flow cytometry, HEK-293F cells transfected with human B7H4 [panel Human B7H4]. As for the experimental part: as §1
In test [6] the target is T3, human recombinant His tagged B7H4 protein (Sino Biological cat. no. 10738-H08H) (human, UniProt Q7Z7D3 29-258).
T3 construct: Bought protein; theoretical mass 26.8 kDa; also called human B7H4; human B7H4 extracellular domain
T3 sequence: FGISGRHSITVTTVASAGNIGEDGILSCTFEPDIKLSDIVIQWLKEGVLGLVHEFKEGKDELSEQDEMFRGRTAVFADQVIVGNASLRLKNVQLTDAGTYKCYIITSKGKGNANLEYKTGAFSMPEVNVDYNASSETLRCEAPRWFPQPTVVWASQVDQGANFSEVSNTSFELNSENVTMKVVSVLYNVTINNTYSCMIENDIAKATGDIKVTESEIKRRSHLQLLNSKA
Put plainly: BLI (Octet HTX); antibody on anti-human IgG Fc capture sensor, human B7H4 ECD-His in solution; 2nd experiment (average of n = 3). As to the method: (§3) Target binding affinity of B7H4 antibodies was determined by label-free biolayer interferometry (BLI) on an Octet HTX instrument (FortéBio). Experiments were carried out while shaking at 1,000 RPM at 30° C. […] Anti-Human IgG Fc Capture (AHC) biosensors (FortéBio, cat. no. 18-5060) were pre-conditioned by exposure to 10 mM glycine (Sigma-Aldrich, cat. no. 15527) buffer pH 1.7 for 5 s, followed by neutralization in Sample Diluent (FortéBio, cat. no. 18-1048) for 5 s; both steps were repeated 2 times. Next, AHC sensors were loaded with antibody (1 μg/mL in Sample diluent) for 600 s. […] The theoretical molecular mass of human B7H4 and mouse B7H4 (as ECD-His tagged molecules) based on their amino acid sequences (26.8 kDa and 26.6 kDa respectively) were used for calculations. For each antibody a reference sensor was used, which was incubated with Sample Diluent instead of antigen. AHC sensors were regenerated by exposure to 10 mM glycine buffer pH 1.7 for 5 s, followed by neutralization in Sample Diluent for 5 s; both steps were repeated twice. Subsequently sensors were loaded again with antibody for the next cycle of kinetics measurements.
(§4) Data were acquired using Data Acquisition Software v9.0.0.49d (FortéBio) and analyzed with Data Analysis Software v9.0.0.12 (FortéBio). Data traces were corrected per antibody by subtraction of the reference sensor. The Y-axis was aligned to the last 10 s of the baseline, Interstep Correction alignment to dissociation and Savitzky-Golay filtering were applied. Data traces with a response<0.05 nm were excluded from analysis. The data was fitted with the 1:1 Global Full fit model using a window of interest for the association and dissociation times set at 300 s and 200 s respectively.
A general note: BLI is a label-free optical method that tracks binding on a fibre tip over time.

Test [7] deals with T3, human recombinant His tagged B7H4 …. Put plainly: BLI (Octet HTX); antibody on anti-human IgG Fc capture sensor, human B7H4 ECD-His in solution; 2nd experiment. As to the method: as §3, §4

B1: bsIgG1-huCD3-H101G-FEALxB7H4-C1-N52S-FEAR (bispecific antibody)
heavy 1: not shown
light 1: not shown
heavy 2: QVQLQQWGAGLLKPSETLSLTCAVYGGSFSGYYWSWIRQPPGKGLEWIGEISHSGSTNYNPSLKSRVTISIDTSKNQFSLKLTSVTAADTAVFYCARGLFNWNFDSWGQGTLVTVSSASTKGPSVFPLAPSSKSTSGGTAALGCLVKDYFPEPVTVSWNSGALTSGVHTFPAVLQSSGLYSLSSVVTVPSSSLGTQTYICNVNHKPSNTKVDKRVEPKSCDKTHTCPPCPAPEFEGGPSVFLFPPKPKDTLMISRTPEVTCVVVAVSHEDPEVKFNWYVDGVEVHNAKTKPREEQYNSTYRVVSVLTVLHQDWLNGKEYKCKVSNKALPAPIEKTISKAKGQPREPQVYTLPPSREEMTKNQVSLTCLVKGFYPSDIAVEWESNGQPENNYKTTPPVLDSDGSFFLYSRLTVDKSRWQQGNVFSCSVMHEALHNHYTQKSLSLSPGK
light 2: DIQMTQSPSSLSASVGDRVTITCRASQGIRNDLGWYQQKPGKAPKRLIYGASSLQSGVPSRFSGSGSGTEFTLTISSLQPEDFATYYCLQHNSYPRTFGQGTTVEIKRTVAAPSVFIFPPSDEQLKSGTASVVCLLNNFYPREAKVQWKVDNALQSGNSQESVTEQDSKDSTYSLSSTLTLSKADYEKHKVYACEVTHQGLSSPVTKSFNRGEC
notes: also called bslgG1-huCD3-H101G-FEALxB7H4-C1-N52S-FEAR; BslgG1-huCD3-H101G-FEALxB7H4-C1-N52S-FEAR
What is called EC50 (read off the curve) is the midpoint of the concentration-response curve. A lower EC50 (read off the curve) goes with a more potent agent. For B1, in test [1], the “IC50 of T cell-mediated cytotoxicity, HCC1954 cells, highest of 4 donors” value was found to be 0.22 µg/mL; the “IC50 of T cell-mediated cytotoxicity, HCC1954 cells, lowest of 4 donors” value came out at 0.06 µg/mL; the “IC50 of T cell-mediated cytotoxicity, MCF7 cells, highest of 4 donors” value came to 1.29 µg/mL; the “IC50 of T cell-mediated cytotoxicity, MCF7 cells, lowest of 4 donors” value is 0.55 µg/mL. Besides, in test [1], the “IC50 of T cell-mediated cytotoxicity, MDA-MB-468 cells, highest of 4 donors” value was determined as 0.16 µg/mL; the “IC50 of T cell-mediated cytotoxicity, MDA-MB-468 cells, lowest of 4 donors” value was 0.08 µg/mL; the “IC50 of T cell-mediated cytotoxicity, NCI-H16650 cells, highest of 4 donors” value turned out to be 5.07 µg/mL; the “IC50 of T cell-mediated cytotoxicity, NCI-H16650 cells, lowest of 4 donors” value is 1.67 µg/mL. In test [1], the “IC50 of T cell-mediated cytotoxicity, OVCAR3 cells, highest of 4 donors” value is 1.63 µg/mL; the “IC50 of T cell-mediated cytotoxicity, OVCAR3 cells, lowest of 4 donors” value amounted to 0.09 µg/mL; the “IC50 of T cell-mediated cytotoxicity, SK-BR3 cells, highest of 4 donors” value was 0.22 µg/mL; the “IC50 of T cell-mediated cytotoxicity, SK-BR3 cells, lowest of 4 donors” value was found to be 0.09 µg/mL. Moreover, the “EC50 (read off the curve)” value in test [2] is approximately 1 µg/mL. Moreover, in test [3], the binding result was “no binding (tested: 30 µg/ml)”.

B2: IgG1-B7H4-C1-N52S-FEAR (antibody, V domains shown)
VH: QVQLQQWGAGLLKPSETLSLTCAVYGGSFSGYYWSWIRQPPGKGLEWIGEISHSGSTNYNPSLKSRVTISIDTSKNQFSLKLTSVTAADTAVFYCARGLFNWNFDSWGQGTLVTVSS
VL: DIQMTQSPSSLSASVGDRVTITCRASQGIRNDLGWYQQKPGKAPKRLIYGASSLQSGVPSRFSGSGSGTEFTLTISSLQPEDFATYYCLQHNSYPRTFGQGTTVEIKR
notes: Full length human IgG1 with L234F, L235E, D265A, K409R (FEAR) heavy chain constant region and kappa light chain; bivalent, monospecific; also called IgG1-B7H4-C1-052S-FEAR
Usually Kd stands for the constant that tells how readily two partners part at equilibrium. A word on the koff: it is the first-order rate constant of dissociation. As usually defined, the kon is the second-order rate constant of association. In the case of B2, the “EC50 (read off the curve)” value in test [4] was approximately 1 µg/mL. Besides, the “EC50 (read off the curve)” value in test [5] was approximately 0.05 µg/mL. In addition, in test [6], the Kd is 57 nM, the koff turned out to be 0.0047 s⁻¹ and the kon is 84000 M⁻¹ s⁻¹.

B3: IgG1-B7H4-C5-FEAR (antibody, V domains shown)
VH: QLQLQESGPGLVKPSETLSLTCTVSGGSIKSGSYYWGWIRQPPGKGLEWIGNIYYSGSTYYNPSLRSRVTISVDTSKNQFSLKLSSVTAADTAVYYCAREGSYPNQFDPWGQGTLVTVSS
VL: EIVMTQSPATLSVSPGERATLSCRASQSVSSNLAWYQQKPGQAPRLLIYGASTRATGIPARFSGSGSGTEFTLTISSLQSEDFAVYYCQQYHSFPFTFGGGTKVEIKR
notes: Full length IgG1 FEAR, kappa; variable domains from US20190085080A1
B3: in test [7], the Kd was 9.9 nM, the koff was 0.0025 s⁻¹ and the kon is 250000 M⁻¹ s⁻¹.
